Assay results reported in patent US20170355757A1 (Regeneron, published 2017).

T1: monkey C5-mmh (monkey, UniProt P01031 19-1676 (human entry), limits assumed)
T1 construct: Expressed with a C-terminal myc-myc-hexahistidine tag
T1 chain: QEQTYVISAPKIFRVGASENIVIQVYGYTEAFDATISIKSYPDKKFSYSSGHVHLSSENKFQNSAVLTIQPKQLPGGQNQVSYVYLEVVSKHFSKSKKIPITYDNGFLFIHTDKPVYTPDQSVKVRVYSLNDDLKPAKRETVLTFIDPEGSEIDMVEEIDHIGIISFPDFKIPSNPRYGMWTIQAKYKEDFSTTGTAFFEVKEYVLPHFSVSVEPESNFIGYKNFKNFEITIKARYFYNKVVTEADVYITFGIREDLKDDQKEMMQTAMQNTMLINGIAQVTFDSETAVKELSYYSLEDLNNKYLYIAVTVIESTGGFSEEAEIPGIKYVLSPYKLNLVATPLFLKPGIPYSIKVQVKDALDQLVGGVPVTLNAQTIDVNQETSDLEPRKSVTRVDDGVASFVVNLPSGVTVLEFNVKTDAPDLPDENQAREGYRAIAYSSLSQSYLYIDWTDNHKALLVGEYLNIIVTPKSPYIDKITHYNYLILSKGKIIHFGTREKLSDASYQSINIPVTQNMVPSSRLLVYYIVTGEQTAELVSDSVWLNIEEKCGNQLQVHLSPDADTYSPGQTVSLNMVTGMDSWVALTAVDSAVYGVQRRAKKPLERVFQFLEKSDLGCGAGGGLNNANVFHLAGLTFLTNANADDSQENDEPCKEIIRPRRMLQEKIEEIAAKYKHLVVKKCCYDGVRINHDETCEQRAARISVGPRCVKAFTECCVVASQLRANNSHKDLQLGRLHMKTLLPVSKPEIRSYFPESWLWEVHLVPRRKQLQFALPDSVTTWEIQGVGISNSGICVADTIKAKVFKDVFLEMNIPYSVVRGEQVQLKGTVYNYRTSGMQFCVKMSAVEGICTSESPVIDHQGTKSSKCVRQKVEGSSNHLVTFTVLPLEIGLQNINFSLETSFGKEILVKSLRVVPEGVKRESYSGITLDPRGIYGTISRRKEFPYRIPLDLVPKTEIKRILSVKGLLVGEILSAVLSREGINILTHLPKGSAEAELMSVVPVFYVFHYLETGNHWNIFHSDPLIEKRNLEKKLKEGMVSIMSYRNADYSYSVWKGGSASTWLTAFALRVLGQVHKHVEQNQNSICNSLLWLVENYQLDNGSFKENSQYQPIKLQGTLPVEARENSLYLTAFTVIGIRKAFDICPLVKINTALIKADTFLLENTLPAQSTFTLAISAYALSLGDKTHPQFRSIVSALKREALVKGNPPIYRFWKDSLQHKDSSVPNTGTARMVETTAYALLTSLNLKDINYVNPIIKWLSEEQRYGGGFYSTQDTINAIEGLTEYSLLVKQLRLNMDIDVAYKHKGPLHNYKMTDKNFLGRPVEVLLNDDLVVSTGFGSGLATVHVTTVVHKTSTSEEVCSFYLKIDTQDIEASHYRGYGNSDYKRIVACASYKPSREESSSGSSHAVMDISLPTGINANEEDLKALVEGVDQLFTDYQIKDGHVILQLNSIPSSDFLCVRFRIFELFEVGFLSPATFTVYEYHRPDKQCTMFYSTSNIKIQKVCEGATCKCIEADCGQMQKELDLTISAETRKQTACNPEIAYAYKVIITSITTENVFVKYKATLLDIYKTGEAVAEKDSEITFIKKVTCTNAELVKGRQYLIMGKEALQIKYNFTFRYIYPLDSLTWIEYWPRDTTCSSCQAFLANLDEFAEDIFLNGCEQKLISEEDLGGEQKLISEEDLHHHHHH


Assays:
monkey C5-mmh = biological target: T1, monkey C5-mmh; test: SPR, mAb captured by anti-hFc, 25C
Experimental: (§1) Equilibrium dissociation constants (KD values) for C5 binding to purified anti-C5 antibodies were determined using a real-time surface plasmon resonance biosensor assay on a Biacore T200 instrument. The Biacore sensor surface was derivatized by amine coupling with a monoclonal mouse anti-human Fc antibody (GE Healthcare, # BR-1008-39) to capture anti-C5 antibodies expressed with human Fc constant regions. Biacore binding studies were conducted in HBST running buffer (0.01M HEPES pH 7.4, 0.15M NaCl, 3 mM EDTA, 0.05% v/v Surfactant P20).
(§2) Human C5 was obtained from a commercial source (EMD). Other C5 reagents were expressed with a C-terminal myc-myc-hexahistidine tag (subsequently referred to as C5-mmh). […] Association of all the C5 reagents to each of the captured monoclonal antibodies was monitored for 3 minutes and their dissociation in HBST running buffer was monitored for 8 minutes. All the binding kinetics experiments were performed at either 25° C. or 37° C. Kinetic association (kₐ) and dissociation (kd) rate constants were determined by fitting the real-time sensorgrams to a 1:1 binding model using Scrubber 2.0c curve fitting software. Binding dissociation equilibrium constants (KD) and dissociative half-lives (t %) were calculated from the kinetic rate constants as: KD (M)=kd/kₐ and t_{1/2} (min)=In2/(60×kd)

Human C5 [1] = biological target: T2, Human C5 (human, UniProt P01031 19-1676); test: SPR, mAb captured by anti-hFc, 25C
T2 construct: The natural protein has a beta and an alpha chain; also called complement factor 5; complement component 5
Experimental: as §1, §2

Human C5 [2] = biological target: T2, Human C5; test: SPR, mAb captured by anti-hFc, 37C
Experimental: as §1, §2

100 nM monkey C5-mmh Bound (RU) (monkey C5-mmh)	Kd (monkey C5-mmh) [nM]	koff (monkey C5-mmh) [s⁻¹]	kon (monkey C5-mmh) [M⁻¹ s⁻¹]	t1/2 (monkey C5-mmh) [min]	100 nM Human C5 Bound (RU) (Human C5 [1])	Kd (Human C5 [1]) [nM]	koff (Human C5 [1]) [s⁻¹]	kon (Human C5 [1]) [M⁻¹ s⁻¹]	t½ (Human C5 [1]) [min]	100 nM Human C5 Bound (RU) (Human C5 [2])	Kd (Human C5 [2]) [nM]	koff (Human C5 [2]) [s⁻¹]	kon (Human C5 [2]) [M⁻¹ s⁻¹]	t½ (Human C5 [2]) [min]	Binder
111	0.315	0.000132	419000	88	116	0.121	0.000131	1.09e+06	88	153	0.295	0.000381	1.29e+06	30	H4H12167P (antibody, human IgG4, V domains shown) VH: QVQLVESGGGLVKPGGSLRLSCAASGFTFSDSYMSWIRQAPGKGLEWISYIGSSGNTFYYADSVKGRFTISRDNANNLLYLQMTSLRAEDTAVYYCAREEGDFWSAVDSWGQGTLVTVSS VL: DIQLTQSPSFLSASVGDRVTITCWASQGISSYLAWYQQKPGKAPKLLIHTASTLQSGVPSRFSGSGSGTEFTLTISNLQPEDFATYYCQQLNSYPFTFGPGTKVDIK
59	25.7	0.00165	64200	7	100	0.91	0.000196	216000	59	132	2.15	0.000637	296000	18	H4H12175P (antibody, human IgG4, V domains shown) VH: EVQLVESGGGVVQPGGSLRLSCAASGFTFNDYAMHWVRQAPGKGLEWVSLISGDGGNTYYADSVKGRLTISRDNSKNSLYLQMNSLRTEDTALYYCAKDKGWNFGYFDLWGRGTLVTVSS VL: DIQMTQSPSSLSTSVGDRVTITCRASQNIDTYLNWYQQKPGKAPKLLIYDASSLQSGVPSRFSGSGSGTDFTLTITSLQPEDFATYYCQQNDNILHPLTFGGGTKVEIK

Further lines, the binder ahead of its results:

Binder	100 nM monkey C5-mmh Bound (RU) (monkey C5-mmh)	Kd (monkey C5-mmh) [nM]	koff (monkey C5-mmh) [s⁻¹]	kon (monkey C5-mmh) [M⁻¹ s⁻¹]	t1/2 (monkey C5-mmh) [min]	100 nM Human C5 Bound (RU) (Human C5 [1])	Kd (Human C5 [1]) [nM]	koff (Human C5 [1]) [s⁻¹]	kon (Human C5 [1]) [M⁻¹ s⁻¹]	t½ (Human C5 [1]) [min]	100 nM Human C5 Bound (RU) (Human C5 [2])	Kd (Human C5 [2]) [nM]	koff (Human C5 [2]) [s⁻¹]	kon (Human C5 [2]) [M⁻¹ s⁻¹]	t½ (Human C5 [2]) [min]
H4H12163P (antibody, human IgG4, V domains shown) VH: EVQLVESGGDLVQPGGSLRLSCAASGFTFSSYAMNWVRQGPGKGLEWVSAISGRGDSTYYADSVKGRLTISRDNSKNTLYLQMNSLRAEDTAVYYCVKEGEQLVYWYFDLWGRGTLVTVSS VL: DIQMTQSPSSLSASVGDRVTITCRASQTISNFLHWYQQKPGKAPKLLIYAASSLQSGVPSRFSGSGSGTDFTLTISSLQPEDFSTYFCQQSYTTPLTFGGGTKVEIK	98	2.49	0.000775	311000	15	108	0.324	0.000208	643000	55	139	0.729	0.000665	911000	17
H4H12176P2 (antibody, human IgG4, V domains shown) VH: EVQLVESGGGLVQPGGSLRLSCAASGFHSNRYWMDWVRQAPGKGLEWVANIKQDGSEENYVDSVKGRFTISRDNAKNSLYLQMNSLRAEDTAVYYCARDRSTSWVPYWFFDLWGRGTLVTVSS VL: not shown	69	0.322	5.88e-05	182000	196	96	0.201	6.75e-05	336000	171	71	1.59	0.000234	147000	49
H4H12159P (antibody, human IgG4, V domains shown) VH: QVQLVESGGGVVQPGRSLRLSCGASGFTFSTYGMHWVRQAPGKGLEWVAVIWDDGNNKYYADSVKGRFTISRDNSKNTLYLQMNSLRAEDTAVYYCARDSEVAPVGDYWGQGTLVTVSS VL: DIQMTQSPSTLSASVGDRVTIICRASQSINRWLAWYQQKPGKAPKLLIYKASSLESGVPSRFSGSGSGTEFTLTISSLQPDDFAAYYCQQYNDYSYTFGQGTKLEIK	116	0.133	4.69e-05	354000	246	118	0.0731	7.13e-05	975000	162	145	0.103	0.000107	1.04e+06	108
